For three molecules, Kd and Ki results are on record in paper PMC5019495 (Nature, 2016).

In experiment [1] the target is T1, yeast E2 Ubc9 (wild type) (yeast, UniProt P50623 1-157).
T1 sequence (looked up): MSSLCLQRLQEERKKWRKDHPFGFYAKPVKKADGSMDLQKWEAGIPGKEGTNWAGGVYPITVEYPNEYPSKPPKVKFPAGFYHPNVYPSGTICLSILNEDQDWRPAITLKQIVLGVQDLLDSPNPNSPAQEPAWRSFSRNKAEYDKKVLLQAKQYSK
Kind of experiment: fluorescence polarisation.

The target in experiment [2] is T2, yeast E3 active fragment Siz1^(167–465) (yeast, UniProt Q04195 167-465).
T2 sequence (looked up): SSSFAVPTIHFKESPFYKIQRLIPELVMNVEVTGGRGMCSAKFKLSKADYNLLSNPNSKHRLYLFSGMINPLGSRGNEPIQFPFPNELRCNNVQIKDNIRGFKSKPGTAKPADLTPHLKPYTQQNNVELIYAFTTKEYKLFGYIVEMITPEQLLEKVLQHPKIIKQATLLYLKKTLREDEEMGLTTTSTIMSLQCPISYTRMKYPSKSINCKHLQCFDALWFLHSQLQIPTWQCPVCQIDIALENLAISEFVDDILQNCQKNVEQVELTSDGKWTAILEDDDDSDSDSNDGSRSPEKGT
Kind of experiment: competitive inhibition of multiple turnover SUMO conjugation.

The target of experiment [3] is T2, yeast E3 active fragment Siz1^(167–465). The description is as above. This is another data set of the same source.

Read-outs that look alike come from different tables or passages of the source.

B1: Smt3^K11C-Alexa488 (natural protein)
chain: SDSEVNQEACPEVKPEVKPETHINLKVSDGSSEIFFKIKKTTPLRRLMEAFAKRQGKEMDSLRFLYDGIRIQADQTPEDLDMEDNDIIEAHREQIGG
modifications: Alexa Fluor 488 maleimide on Cys11
With B1, binding in experiment [1] was put at a Kd of 24.6 nM.

B2: Ubc9^A129K/K153R-Smt3 thioester mimetic (complex)
chain 1: MSSLCLQRLQEERKKWRKDHPFGFYAKPVKKADGSMDLQKWEAGIPGKEGTNWAGGVYPITVEYPNEYPSKPPKVKFPAGFYHPNVYPSGTICLSILNEDQDWRPAITLKQIVLGVQDLLDSPNPNSPKQEPAWRSFSRNKAEYDKKVLLQARQYSK
chain 2: SDSEVNQEAKPEVKPEVKPETHINLKVSDGSSEIFFKIKKTTPLRRLMEAFAKRQGKEMDSLRFLYDGIRIQADQTPEDLDMEDNDIIEAHREQIGG
modifications: Lys129 linked to the C-terminus of Smt3 | C-terminus linked to Lys129 of Ubc9
With B2, the figures for the Ki in experiment [2] and in experiment [3] were 3150 nM and 4330 nM, respectively.

B3: Ubc9^C93K-Smt3 thioester mimetic (complex)
chain 1: MSSLCLQRLQEERKKWRKDHPFGFYAKPVKKADGSMDLQKWEAGIPGKEGTNWAGGVYPITVEYPNEYPSKPPKVKFPAGFYHPNVYPSGTIKLSILNEDQDWRPAITLKQIVLGVQDLLDSPNPNSPAQEPAWRSFSRNKAEYDKKVLLQAKQYSK
chain 2: SDSEVNQEAKPEVKPEVKPETHINLKVSDGSSEIFFKIKKTTPLRRLMEAFAKRQGKEMDSLRFLYDGIRIQADQTPEDLDMEDNDIIEAHREQIGG
modifications: Lys93 linked to the C-terminus of Smt3 (stable peptide bond) | C-terminus linked to Lys93 of Ubc9
Regarding B3, the Ki in experiment [2] was 1440 nM; in experiment [3], 2050 nM.
